The results in this text go back to the supplement of paper PMC10567573.

B1: ZNF232 (parent)
chain: FPKSEQVYLHFLSVVTEDGPEPKD
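Also: lentivirally expressed fusions sorted by FACS into six bins by GFP to DsRed ratio, PSI derived from sequencing read proportions per bin multiplied by bin number.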

This data set covers variants of B1. The data set can be described thus: protein stability index of a GFP-peptide fusion (GPS, HEK-293T) (PSI 1-6); higher = more stable. The note with it: c terminus: a fixed tail appended.
As for FPKSEQVYLHFLSVVTEDGTEPKD [P20T], the protein stability index worked out at 2.72. Regarding FPKSEQVYLHFLSVVTEDGDEPKD [P20D], the protein stability index is 2.53. For FPKSEQVYLHFLSVVTEDGLEPKD [P20L], the protein stability index is 1.71.

As for FPKSEQVYLHFLSVVTEDGREPKD [P20R], the protein stability index came to 2.15.

In the case of FPKSEQVYLHFLSVVTEDGGEPKD [P20G], the protein stability index came to 2.5.

Consider FPKSEQVYLHFLSVVTEDGFEPKD [P20F], for which the protein stability index turned out to be 1.44.

With FPKSEQVYLHFLSVVTEDGIEPKD [P20I], the protein stability index was 2.25. Take FPKSEQVYLHFLSVVTEDGVEPKD [P20V]: the protein stability index is 1.76. Turning to FPKSEQVYLHFLSVVTEDGAEPKD [P20A], the protein stability index is 3.42. The result for FPKSEQVYLHFLSVVTEDGMEPKD [P20M] reads 2.11; that for FPKSEQVYLHFLSVVTEDGCEPKD [P20C], 1.93; that for FPKSEQVYLHFLSVVTEDGKEPKD [P20K], 2.47. FPKSEQVYLHFLSVVTEDGHEPKD [P20H]: the protein stability index amounted to 2.28. For FPKSEQVYLHFLSVVTELGPEPKD [D18L], the protein stability index stood at 2.61.

For the variant FPKSEQVYLHFLSVVTEHGPEPKD [D18H], the protein stability index came to 2.46. Take FPKSEQVYLHFLSVVTEGGPEPKD [D18G]: the protein stability index stood at 2.32.

Take FPKSEQVYLHFLSVVTENGPEPKD [D18N]: the protein stability index was 1.71. Next, FPKSEQVYLHFLSVVTEFGPEPKD [D18F]: 3.47; FPKSEQVYLHFLSVVTEMGPEPKD [D18M]: 1.01; FPKSEQVYLHFLSVVTEVGPEPKD [D18V]: 1.23. For the variant FPKSEQVYLHFLSVVTESGPEPKD [D18S], the protein stability index was found to be 1.33.

With FPKSEQVYLHFLSVVTEYGPEPKD [D18Y], the protein stability index turned out to be 1.24.

FPKSEQVYLHFLSVVTETGPEPKD [D18T]: the protein stability index turned out to be 1.76. On to FPKSEQVYLHFLSVVTEAGPEPKD [D18A], for which the protein stability index amounted to 1.73. On to FPKSEQVYLHFLSVVTEPGPEPKD [D18P], for which the protein stability index stood at 1.94. Turning to FPKSEQVYLHFLSVVTEKGPEPKD [D18K], the protein stability index was 1.58. The result for FPKSEQVYLHFLSVVTERGPEPKD [D18R] reads 1.47. As for FPKSEQVYLHFLSVVTEQGPEPKD [D18Q], the protein stability index was 1.77. Next, FPKSEQVYLHFLSVVTEDGPEPKE [D24E]: 2.12; FPKSEQVYLHFLSVVTEDGPEPKH [D24H]: 1.35. Take FPKSEQVYLHFLSVVTEDGPEPKA [D24A]: the protein stability index was 1.8.

Consider FPKSEQVYLHFLSVVTEDGPEPKG [D24G], for which the protein stability index was 3.76. On to FPKSEQVYLHFLSVVTEDGPEPKN [D24N], for which the protein stability index worked out at 1.82. On to FPKSEQVYLHFLSVVTEDGPEPKQ [D24Q], for which the protein stability index was 2.95. Consider FPKSEQVYLHFLSVVTEDGPEPKT [D24T], for which the protein stability index worked out at 1.75. For the variant FPKSEQVYLHFLSVVTEDGPEPKV [D24V], the protein stability index worked out at 2.37. In the case of FPKSEQVYLHFLSVVTEDGPEPKR [D24R], the protein stability index amounted to 1.83.

Regarding FPKSEQVYLHFLSVVTEDGPEPKC [D24C], the protein stability index was 1.36.

Regarding FPKSEQVYLHFLSVVTEDGPEPKL [D24L], the protein stability index worked out at 2.94.

FPKSEQVYLHFLSVVTEDGPEPKY [D24Y]: the protein stability index was 2.58. Next, FPKSEQVYLHFLSVVTEDGPEPKP [D24P]: 2.16. FPKSEQVYLHFLSVVTEDGPEPKI [D24I]: the protein stability index amounted to 2.14. Regarding FPKSEQVYLHFLSVVTEDGPEPKS [D24S], the protein stability index is 1.71. Regarding FPKSEQVYLHFLSVVTEDGPEPKM [D24M], the protein stability index worked out at 1.56. As to FPKSEQVYLHFLSVVTEDGPEPKF [D24F], the protein stability index was 1.99. With FPKSEQVYLHFLSVVTEDGPEPKW [D24W], the protein stability index is 1.35. FPKSEQVYLHFLSVVPEDGPEPKD [T16P]: the protein stability index was 3.37. For FPKSEQVYLHFLSVVWEDGPEPKD [T16W], the protein stability index is 1.89. Regarding FPKSEQVYLHFLSVVQEDGPEPKD [T16Q], the protein stability index worked out at 1.87. The result for FPKSEQVYLHFLSVVVEDGPEPKD [T16V] reads 1.81. Consider FPKSEQVYLHFLSVVKEDGPEPKD [T16K], for which the protein stability index stood at 2.77. In the case of FPKSEQVYLHFLSVVSEDGPEPKD [T16S], the protein stability index stood at 2.31. Consider FPKSEQVYLHFLSVVIEDGPEPKD [T16I], for which the protein stability index is 2.19. Turning to FPKSEQVYLHFLSVVYEDGPEPKD [T16Y], the protein stability index is 2.07. Consider FPKSEQVYLHFLSVVNEDGPEPKD [T16N], for which the protein stability index is 2.42.

On to FPKSEQVYLHFLSVVLEDGPEPKD [T16L], for which the protein stability index came to 1.85. The result for FPKSEQVYLHFLSVVTEDGPEPFD [K23F] reads 1.63. On to FPKSEQVYLHFLSVVTEDGPEPDD [K23D], for which the protein stability index stood at 1.82.

Turning to FPKSEQVYLHFLSVVTEDGPEPHD [K23H], the protein stability index came out at 1.84. Regarding FPKSEQVYLHFLSVVTEDGPEPCD [K23C], the protein stability index turned out to be 2.07. The result for FPKSEQVYLHFLSVVTEDGPEPYD [K23Y] reads 1.39. Next, FPKSEQVYLHFLSVVTEDGPEPTD [K23T]: 1.69; FPKSEQVYLHFLSVVTEDGPEPGD [K23G]: 1.83; FPKSEQVYLHFLSVVTEDGPEPID [K23I]: 2.06. Take FPKSEQVYLHFLSVVTEDGPEPWD [K23W]: the protein stability index is 1.7. As for FPKSEQVYLHFLSVVTEDGPEPSD [K23S], the protein stability index amounted to 1.91. As to FPKSEQVYLHFLSVVTEDGPEPND [K23N], the protein stability index was determined as 1.69. Consider FPKSEQVYLHFLSVVTEDGPEPAD [K23A], for which the protein stability index is 2.66. Consider FPKSEQVYLHFLSVVTEDGPEPED [K23E], for which the protein stability index was 2.13. Take FPKSEQVYLHFLSVVTEDGPEPMD [K23M]: the protein stability index came to 2.22. FPKSEQVYLHFLSVVTEDGPEPVD [K23V]: the protein stability index was 2.14. Consider FPKSEQVYLHFLSVVTEDGPEWKD [P22W], for which the protein stability index came out at 1.83.

In the case of FPKSEQVYLHFLSVVTEDGPEKKD [P22K], the protein stability index amounted to 1.67. Turning to FPKSEQVYLHFLSVVTEDGPEDKD [P22D], the protein stability index was 3.31. Consider FPKSEQVYLHFLSVVTEDGPEIKD [P22I], for which the protein stability index stood at 2. Consider FPKSEQVYLHFLSVVTEDGPERKD [P22R], for which the protein stability index was 1.9. Regarding FPKSEQVYLHFLSVVTEDGPEAKD [P22A], the protein stability index is 1.85. In the case of FPKSEQVYLHFLSVVTEDGPELKD [P22L], the protein stability index came out at 2.63. The result for FPKSEQVYLHFLSVVTEDGPEFKD [P22F] reads 1.67; that for FPKSEQVYLHFLSVVTEDGPEEKD [P22E], 1.94.

For FPKSEQVYLHFLSVVTEDGPETKD [P22T], the protein stability index stood at 2.

On to FPKSEQVYLHFLSVVTEDGPEQKD [P22Q], for which the protein stability index was found to be 1.75. Turning to FPKSEQVYLHFLSVVTEDGPEYKD [P22Y], the protein stability index came out at 1.25.

In the case of FPKSEQVYLHFLSVVTEDGPENKD [P22N], the protein stability index came to 2.37. FPKSEQVYLHFLSVVTEDGPEGKD [P22G]: the protein stability index came to 1.75. The result for FPKSEQVYLHFLSVVTEDGPEHKD [P22H] reads 2.39; that for FPKSEQVYLHFLSVVTEDGPESKD [P22S], 1.81; that for FPKSEQVYLHFLSVVTEDGPECKD [P22C], 1.34. On to FPKSEQVYLHFLSVVTEDYPEPKD [G19Y], for which the protein stability index worked out at 1.33. Take FPKSEQVYLHFLSVVTEDSPEPKD [G19S]: the protein stability index came out at 2.27. Take FPKSEQVYLHFLSVVTEDQPEPKD [G19Q]: the protein stability index amounted to 2.49. With FPKSEQVYLHFLSVVTEDDPEPKD [G19D], the protein stability index was 2.06. As to FPKSEQVYLHFLSVVTEDAPEPKD [G19A], the protein stability index was 2.33. Next, FPKSEQVYLHFLSVVTEDRPEPKD [G19R]: 2.45.
